Results on two molecules are retold here after patent publication US20030013136A1, “Human KCR1 regulation of HERG potassium channel block” (priority 2000, published 2003).

Data set [1] has as its target HERG/MiRP1 complex (human). Description: cell-based or functional assay.
For the next data set, the target named is HERG (Homo sapiens, UniProt Q12809). Conditions: 20 min. The procedure:
(§1) The rat KCR1 cDNA was provided by Dr. Haruhiro Higashida, Kanazawa University, Japan. […] MiRP1 cDNA was provided by Dr. Steve Goldstein, (Yale University) in vector pCl-neo (Promega of Madison, Wis.).
(§2) Chinese hamster ovary K1 (CHO-K1) cells were obtained from the American Type Culture Collection (Rockville, Md.) and cultured in Ham's F-12 media (Gibco-BRL of Grand Island, N.Y.) supplemented with 10% fetal bovine serum and 1% pen-strep in a humidified, 5% CO2 incubator at 37° C. CHO-K1 cells were transiently transfected using the Lipofectamine transfection reagents and method (Gibco-BRL). When studying HERG alone or HERG+MiRP1, cells were cotransfected with pGFP-IRS (without KCR1). For experiments examining HERG+KCR1, or HERG+KCR1+MiRP1, GFP expression was obtained via the KCR1-containing pGFP-IRS plasmid. In all cases, cells displaying green fluorescence 48 to 72 hours after transfection were subjected to electrophysiologic analysis.
(§3) Potassium currents were recorded at room temperature (20-22° C.) using the whole-cell patch clamp technique. […] Drug effects were recorded in cells following a pre-drug period where control data were obtained (during pulsing), and a 4 minute drug wash-in period throughout which the cell was held at −80 mV.

A further data set concerns the target HERG+KCR1 (Homo sapiens, UniProt Q12809). As to conditions: 20 min. As to the method:
as §1, §2, §3

HERG/MiRP1 complex (human), sequence (A5H1P7 whole entry, one chain of several): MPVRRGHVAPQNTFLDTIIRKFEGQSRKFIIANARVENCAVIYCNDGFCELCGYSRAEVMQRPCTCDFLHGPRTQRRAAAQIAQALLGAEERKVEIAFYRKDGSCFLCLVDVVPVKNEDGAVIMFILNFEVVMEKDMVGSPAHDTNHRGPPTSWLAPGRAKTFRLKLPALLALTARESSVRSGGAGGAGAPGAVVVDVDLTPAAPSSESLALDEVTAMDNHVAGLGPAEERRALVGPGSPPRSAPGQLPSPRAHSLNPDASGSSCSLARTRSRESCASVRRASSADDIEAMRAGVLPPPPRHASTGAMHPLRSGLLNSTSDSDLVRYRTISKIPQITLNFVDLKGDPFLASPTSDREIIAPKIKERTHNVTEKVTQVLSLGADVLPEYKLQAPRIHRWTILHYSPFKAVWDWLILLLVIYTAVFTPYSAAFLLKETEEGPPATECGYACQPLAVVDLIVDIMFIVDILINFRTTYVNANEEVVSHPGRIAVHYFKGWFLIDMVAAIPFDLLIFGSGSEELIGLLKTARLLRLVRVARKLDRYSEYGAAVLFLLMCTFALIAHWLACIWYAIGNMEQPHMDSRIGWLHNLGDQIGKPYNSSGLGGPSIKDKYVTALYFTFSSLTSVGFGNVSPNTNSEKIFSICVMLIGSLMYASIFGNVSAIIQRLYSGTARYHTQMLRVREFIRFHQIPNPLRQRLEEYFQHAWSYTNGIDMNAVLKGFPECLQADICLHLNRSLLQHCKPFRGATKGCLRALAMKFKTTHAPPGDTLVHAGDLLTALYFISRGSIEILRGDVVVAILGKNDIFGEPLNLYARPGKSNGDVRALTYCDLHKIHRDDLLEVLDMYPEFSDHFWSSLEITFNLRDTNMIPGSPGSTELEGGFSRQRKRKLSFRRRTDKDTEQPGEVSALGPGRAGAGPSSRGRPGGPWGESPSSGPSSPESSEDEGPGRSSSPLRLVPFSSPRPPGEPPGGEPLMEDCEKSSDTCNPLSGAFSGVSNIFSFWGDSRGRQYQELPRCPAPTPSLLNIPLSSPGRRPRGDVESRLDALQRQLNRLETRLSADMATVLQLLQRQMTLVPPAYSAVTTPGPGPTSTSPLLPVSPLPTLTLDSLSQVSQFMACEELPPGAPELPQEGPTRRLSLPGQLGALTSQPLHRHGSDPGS
HERG+KCR1, sequence (Q12809 whole entry): as the sequence (A5H1P7 whole entry, one chain of several) above
HERG, sequence (Q12809 whole entry): as the sequence (A5H1P7 whole entry, one chain of several) above

As to rat KCR1 (from UniProt O88788 1-474), in data set [1], the fast time constant of deactivation at -120 mV, HERG+KCR1+MiRP1 (whole-cell patch clamp, CHO-K1 cells) is 22.5 and the slow time constant of deactivation at -120 mV, HERG+KCR1+MiRP1 (whole-cell patch clamp, CHO-K1 cells) is 251.
With `CC(C)NC[C@@H](O)c1ccc(NS(C)(=O)=O)cc1` [d-sotalol], the “HERG tail current remaining, % of the pre-drug control” value amounted to 54±9% at HERG and 95±6% at HERG+KCR1.
